Assays:
[1] = target: NiV F expressed in HeLa cells under IRES-GFP (Nipah virus, Malaysia, UniProt Q9IH63); test: immunostaining of cells or tissue
[2] = target: DS90 FcM (DS90 nanobody fused to human monomeric Fc) (alpaca (Vicugna pacos)); test: SPR
[3] = target: DS34 FcM (DS34 nanobody fused to human monomeric Fc) (alpaca (Vicugna pacos)); test: SPR
[4] = target: DS76 FcM (DS76 nanobody fused to human monomeric Fc) (alpaca (Vicugna pacos)); test: SPR
[5] = target: DS90 Fc dimer (DS90 nanobody fused to human Fc) (alpaca (Vicugna pacos)); test: SPR

Binder | binding result [1] | other results
DS29 clone, E. coli crude extract of the bacterial display library (VHH) VHH: VQLVESGGGLVQPGGSLRLSCAASGFTFDDYGMSWVRQAPGKGLEWVSAISWNGGGTYYAESMKGRFTISRDNAKNTVYLQMNGLKPEDTAVYYCAKPSTYSGSWLTDFGSWGQGTQVTVSS | binds | –
Biotinylated prefusion NiV F with AviTag (domain or fragment, biotin (on the AviTag, by BirA)) ILHYEKLSKIGLVKGVTRKYKIKSNPLTKDIVIKMIPNVSNMSQCTGSVMENYKTRLNGILTPIKGALEIYKNNTHDLVGDVRLAGVIMAGVAIGIATAAQITAGVALYEAMKNADNINKLKSSIESTNEAVVKLQETAEKTVYVLTALQDYINTNLVPTIDKISCKQTELSLDLALSKYLSDLLFVFGPNLQDPVSNSMTIQAISQAFGGNYETLLRTLGYATEDFDDLLESDSITGQIIYVDLSSYYIIVRVYFPILTEIQQAYIQELLPVSFNNDNSEWISIVPNFILVRNTLISNIEIGFCLITKRSVICNQDYATPMTNNMRECLTGSTEKCPRELVVSSHVPRFALSNGVLFANCISVTCQCQTTGRAISQSGEQTLLMIDNTTCPTAVLGNVIISLGKYLGSVNYNSEGIAIGPPVFTDKVDISSQISSMNQSLQQSKDYIKEAQRLLDT | – | Kd [2]: 0.00483 µM; Kd [3]: 0.0234 µM; Kd [4]: 0.303 µM; binding result [5]: binds
DS90 clone, E. coli crude extract of the bacterial display library (VHH) VHH: VQLVESGGGLVQAGGSLRLSCAASGRTFSSYVMGWYRQAPGKEREFVARISWSGGHTHSADSVKGRFTISRDNAKNTVYLQMNSLKPDDTAIYYCNAEPTVTGSWFTPGLQSYWGQGTQVTVSS | binds | –
DS34 clone, E. coli crude extract of the bacterial display library (VHH) VHH: VQLVESGGGLVQAGGSLRLSCAASGRTFSSYVMGWYRQAPGKEREFVARISWSGGHTHSADSVKGRFTISRDNAKNTVYLQMNSLKPDDTAIYYCNAEPTATGSWFTPGLQSYWGQGTQVTVSS | binds | –
DS76 clone, E. coli crude extract of the bacterial display library (VHH) VHH: VQLVESGGGLVQAGGSLGLSCAASGRTFSSYVMGWYRQAPGKEREFVARISWSGGHTHSADSVKGRFTISRDNAKNTVYLQMNSLKPDDTAIYYCNAEPSVTGSWFTPGLQSYWGQGTQVTVSS | binds | –
Bacterially expressed DS90-cMyc (VHH) VHH: VQLVESGGGLVQAGGSLRLSCAASGRTFSSYVMGWYRQAPGKEREFVARISWSGGHTHSADSVKGRFTISRDNAKNTVYLQMNSLKPDDTAIYYCNAEPTVTGSWFTPGLQSYWGQGTQVTVSS | binds | –
